Source: patent publication US6982321

Biological target: isolated VL-domain of the reshaped anti-lysozyme Fv-fragment (HuVLLYS)
Test: formaldehyde crosslinking of Fv, overloaded SDS gel

B1: isolated VL-domain of the reshaped anti-lysozyme Fv-fragment (HuVLLYS) (protein)
VL: DIQMTQSPSSLSASVGDRVTITCRASGNIHNYLAWYQQKPGKAPKLLIYYTTTLADGVPSRFSGSGSGTDFTFTISSLQPEDIATYYCQHFWSTPRTFGQGTKVEIK
fraction of crosslinked material: < 5%
